Results as given in the supplement of paper PMC10126150.
± gives the standard deviation of the averaged measurements.

System: ATP
Assay: switch fluorescence ratio, 500 uM ATP over buffer (Cy3 cluster intensity, sum of 5 cycles each) (fold (ratio)); higher = stronger signal-on switching upon ATP binding; sequences stand for … in TCGTCGGCAGCGTCAGATGTGTATAAGAGACAGTTTTTTTTTTTTTTTTTTTTTTTTT…TC
Details: aptamer strand: ATP DNA aptamer (quencher-CACCTGGGGGAGTATTGCGGAGGAAGG + anchor), 100 nM annealed; ATP concentration: 500 uM
How it was run: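 Cy3-labelled switching-strand clusters on a modified Illumina MiSeq flow-cell were annealed to 100 nM quencher-labelled ATP aptamer and imaged first in selection buffer, then after 15 min with 500 uM ATP at 22 °C. NaOH stripping and re-annealing separated each of five buffer/ATP cycles, and clusters outside 100-1000 RFU were excluded. The fluorescence ratio sums target-cycle Cy3 intensity over buffer-cycle Cy3 intensity per cluster and averages it per switch-domain sequence.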
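Further: ATP exposure 15 min at 22 °C before imaging.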

| Sequence | switch fluorescence ratio |
| --- | --- |
| TGAATATTAA | 0.985 ± 0.025 |
| TGAATGAATA | 1.027 ± 0.0085 |
| TGAATGAATT | 0.997 ± 0.022 |
| TGAATGATCG | 1.07 ± 0.032 |
| TGAATGGAAT | 1.04 ± 0.047 |
| TGAATTAAGT | 1.029 ± 0.003 |
| TGAATTAGAA | 0.968 ± 0.018 |
| TGAATTTGTT | 0.995 ± 0.038 |
| TGAATTTTAA | 0.995 ± 0.042 |
| TGACAACAGC | 1.049 ± 0.0091 |
| TGACAACCGG | 1.05 ± 0.021 |
| TGACAGTAAC | 1.25 ± 0.25 |
| TGACATCTA | 1.07 ± 0.057 |
| TGACCCGGGT | 1.018 ± 0.0072 |
| TGACCGAGAA | 1.06 ± 0.028 |
| TGACGCCGAA | 1.07 ± 0.019 |
| TGACGGCGGA | 1.02 ± 0.023 |
| TGACGGGAAG | 0.9862 ± 0.0012 |
| TGACGGGGAT | 1.25 ± 0.33 |
| TGACGGGTAC | 1.87 ± 0.087 |
| TGACGTCTGG | 1.015 ± 0.0071 |
| TGACGTGCGC | 1.143 ± 0.0093 |
| TGACGTTTTG | 0.9792 ± 0.0046 |
| TGACTACGCG | 1.18 ± 0.02 |
| TGACTATGCT | 0.98 ± 0.02 |
| TGACTGGACG | 1 ± 0.028 |

| Sequence | switch fluorescence ratio |
| --- | --- |
| TGACTGGGCG | 1.0063 ± 0.00065 |
| TGACTGGGGT | 1.02 ± 0.068 |
| TGACTGTGTG | 0.984 ± 0.017 |
| TGACTGTTTC | 1.01 ± 0.024 |
| TGACTTTTCG | 0.995 ± 0.032 |
| TGAGAAAGAG | 2.15 ± 2 |
| TGAGAAAGGA | 0.99 ± 0.028 |
| TGAGAAGCGG | 0.97 ± 0.039 |
| TGAGAAGTTT | 0.992 ± 0.023 |
| TGAGAATTTG | 0.976 ± 0.048 |
| TGAGACTTAC | 1.15 ± 0.06 |
| TGAGAGAAGG | 1.01 ± 0.014 |
| TGAGAGAGTG | 1.02 ± 0.059 |
| TGAGAGCAGG | 1.08 ± 0.025 |
| TGAGAGCGTC | 0.89 ± 0.14 |
| TGAGAGGAAG | 0.989 ± 0.018 |
| TGAGAGGATG | 0.99 ± 0.021 |
| TGAGAGGGGT | 1.05 ± 0.042 |
| TGAGAGTAGG | 0.9839 ± 0.0072 |
| TGAGAGTGCG | 0.968 ± 0.027 |
| TGAGATAAGG | 0.987 ± 0.03 |
| TGAGATAGAT | 1 ± 0.013 |
| TGAGATCGGC | 0.992 ± 0.042 |
| TGAGCAGCTG | 0.953 ± 0.058 |
| TGAGCATGAA | 1 ± 0.024 |
| TGAGCCCTTT | 1.018 ± 0.0046 |

| Sequence | switch fluorescence ratio |
| --- | --- |
| TGAGCCGGGA | 1 ± 0.019 |
| TGAGCCTTGG | 0.995 ± 0.017 |
| TGAGCTAATG | 1.04 ± 0.043 |
| TGAGCTGGGT | 0.995 ± 0.02 |
| TGAGGAAATG | 1 ± 0.037 |
| TGAGGAGGGC | 1.02 ± 0.08 |
| TGAGGCCTAG | 1.02 ± 0.056 |
| TGAGGGACAT | 1.02 ± 0.046 |
| TGAGGGAGGT | 0.985 ± 0.03 |
| TGAGGGCAAG | 1.02 ± 0.022 |
| TGAGGGCCGA | 1.02 ± 0.13 |
| TGAGGGCGGG | 1.03 ± 0.056 |
| TGAGGGCGTT | 0.995 ± 0.031 |
| TGAGGGGGTG | 1 ± 0.029 |
| TGAGGGTACA | 0.984 ± 0.017 |
| TGAGGGTGCT | 1.04 ± 0.037 |
| TGAGGTATAT | 1.01 ± 0.015 |
| TGAGGTATGC | 0.994 ± 0.031 |
| TGAGGTCAGG | 0.982 ± 0.017 |
| TGAGGTCATT | 0.989 ± 0.028 |
| TGAGGTGGGG | 0.9887 ± 0.0027 |
| TGAGTATGGT | 1.002 ± 0.0059 |
| TGAGTATTTT | 0.992 ± 0.025 |
| TGAGTCCCGG | 1 ± 0.016 |
